Results taken from the supplement of paper PMC12764529.
± gives the half width of the 95% confidence interval.

How the values were obtained:
[1] = folding stability dG unfold from trypsin proteolysis; higher = more stable
In short: (§1)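 Bayesian fitting of sequencing counts gave K50 for each design. Unfolding free energy followed by setting this against a sequence-predicted unfolded-state K50 and a shared folded-state K50, either per protease or with trypsin and chymotrypsin combined. The designs, under 80 residues and lacking cysteine, were digested in a PA-tagged cDNA display format at 11 threefold-diluted protease concentrations and without protease, and only those with AlphaFold2 dimer inter-PAE above 15 were kept.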

[2] = folding stability dG unfold from chymotrypsin proteolysis; higher = more stable
In short: as §1

[3] = folding stability dG unfold (combined trypsin and chymotrypsin); higher = more stable
In short: as §1

Row | Sequence | folding stability dG unfold [1] | folding stability dG unfold [2] | folding stability dG unfold [3]
1 | SAGGSAGGNPDLVITFPDGVKITVHPDGTITITRFIPGRDVPVGTRTITVPAPDGIPLEELLKYSAGGSAGG [r6_572_TrMRF] | 0.887 ± 0.062 kcal/mol | 1.2 ± 0.059 kcal/mol | 1.13 ± 0.13 kcal/mol
2 | SAGGKKKKIEIEIVVKKEDLEKIAEELAKKLEEAGYKVKIKKIEVEVYKNKDGKIVYVKVRIEVEVEPSAGG [r13_707_TrROS_Hall] | 3.05 ± 0.47 kcal/mol | 4.82 ± 0.18 kcal/mol | 4.65 ± 0.53 kcal/mol
3 | SAGGSAGGSAGKKPPKVKVLELTFTLEDGYKVTVRLVENEDGELFLEIRIEPLPELPEEKSAGGSAGGSAGG [r11_998_TrROS_Hall] | 1.79 ± 0.16 kcal/mol | 3.36 ± 0.14 kcal/mol | 2.94 ± 0.13 kcal/mol
4 | SAGGSAGGSMLPADTKVIKITVESTLPDGSTTTHTVTVPSSVPLEAVKEQLPPGATITEVVLASAGGSAGGS [r12_597_JUSTAS] | 1.44 ± 0.064 kcal/mol | 0.931 ± 0.011 kcal/mol | 1.16 ± 0.059 kcal/mol
5 | SLKPGEWVMFMFTIPITIRITKDDLPPGWKIKEVTIRIYVMFLFRVDPDGNFKILSFNIMIEIEVKYEPDSA [r9_747_TrROS] | 4.52 ± 0.13 kcal/mol | 5.1 ± 0.081 kcal/mol | 4.98 ± 0.11 kcal/mol
6 | SAGGSAGGSMVKTFPESEPGERVTRELILTPDSIEIVETVVKTDPATGKPVEEVLLRRSTLPLSAGGSAGGS [r12_70_JUSTAS] | -0.747 ± 0.4 kcal/mol | -0.315 ± 0.41 kcal/mol | -0.353 ± 0.29 kcal/mol
7 | SAGGSAGGSAGGPEVEVFYERGPDGPLKVVVVVRNPDTPEVTVLVADLEPEKALEFLEALSAGGSAGGSAGG [r7_105_TrMRF] | 2 ± 0.14 kcal/mol | 1.86 ± 0.084 kcal/mol | 1.89 ± 0.18 kcal/mol
8 | SAGEEIEELAKKLADELREKYPELEVKVEVVEVTVKTTVVKDKETGKLYTKTEITVKLKVEVVPKEELSAGG [r19_293_TrROS_Hall] | 1.99 ± 0.23 kcal/mol | 3.81 ± 0.21 kcal/mol | 3.08 ± 0.31 kcal/mol
9 | SAGGSTVKTITLEFTRDPSTGAITEAEAEIERLKNDPNWEVTDPTITPLPDGTVKVPAKVKIPSNANLSAGG [r13_428_JUSTAS] | 0.116 ± 0.2 kcal/mol | 0.12 ± 0.27 kcal/mol | 0.075 ± 0.23 kcal/mol
10 | SAGGSAGGGAAPRTRVIEVLFPVPPDVTVEEIAERLRALYPDAVLVAEAERLPDGYVRVVVTLRSAGGSAGG [r6_566_TrMRF] | 2.49 ± 0.031 kcal/mol | 3.54 ± 0.078 kcal/mol | 3.19 ± 0.083 kcal/mol
11 | SAGGSAGGSAGKKYKVKVILQPKGEDKPLEIEIEVESLEEAKELLEKAFPDTRIRIDVIESAGGSAGGSAGG [r17_428_TrMRF] | 1.99 ± 0.098 kcal/mol | 2.93 ± 0.088 kcal/mol | 2.59 ± 0.18 kcal/mol
12 | SAGMPAGDFEPVKVEYTIKIPILNEGGGAAAPMPIKVKVEVYRMPNGNLFIKFEIEIPGGNKIEFWFPISAG [r5_580_TrROS] | 2.67 ± 0.28 kcal/mol | 4.32 ± 0.13 kcal/mol | 3.99 ± 0.26 kcal/mol
13 | SAMIIVAMAPDRMLIIGPDGRVLVVDDPEKAIELIKELFPVPIIVIPVPEDSPVFRELLERLERERTGESAG [r14_235_TrMRF] | 2.71 ± 0.08 kcal/mol | 3.18 ± 0.11 kcal/mol | 2.91 ± 0.14 kcal/mol
14 | SAGGSAGGSAGGDSNVDNFTLMFPWGWVVKIDITYTDGGLETDWEIIEPVPPLPPDDKNKSAGGSAGGSAGG [r7_845_TrROS] | 1.6 ± 0.081 kcal/mol | 3.54 ± 0.037 kcal/mol | 2.77 ± 0.12 kcal/mol
15 | SAGGSMNPSVSVEEEVFPDGVTRLKLTFSDGKELEAEVTRHADGNVQVTLYDKSPGKKTTYTIPLSSAGGSA [r2_99_JUSTAS] | 0.65 ± 0.12 kcal/mol | 1.57 ± 0.22 kcal/mol | 1.21 ± 0.21 kcal/mol
16 | SAGGSAGGSAIWIPSPEAADEIMDILAKKNGYKINIEPIGQDEDGGMVYEIEIVPPGQPLTSAGGSAGGSAG [r3_59_TrROS] | 0.152 ± 0.066 kcal/mol | 0.397 ± 0.16 kcal/mol | 0.484 ± 0.22 kcal/mol
17 | SAGGPPVIRFPTAEIPASGTIEDIVAAIERATGEPLPEELVEQILNGKTIEEIIELLKKRGYPVEYLSAGGS [r16_601_JUSTAS] | 3.84 ± 0.14 kcal/mol | 3.11 ± 0.074 kcal/mol | 3.33 ± 0.088 kcal/mol
18 | SMEISFTDPAEAEALLAEVKAKLKAELPPNTVVPITVRDAAGNPTTHPITITPEPPEVVYFTETGGTVLLSA [r9_596_JUSTAS] | 1.94 ± 0.17 kcal/mol | 1.57 ± 0.051 kcal/mol | 1.76 ± 0.28 kcal/mol
19 | SAGGKIKIMDIEIERHGGYYKIEIWIQVDTPDDIEDLLKAGVPNVEVERRRNPNGRLYVQAEFYIPAGSAGG [r13_506_TrROS] | 1.74 ± 0.11 kcal/mol | 3.49 ± 0.17 kcal/mol | 3.14 ± 0.26 kcal/mol
20 | SAGGRTLEFNMKSNNPNMMENEISKLLRELGFPPGFDIEVNPERDPNGRYTYPITITVDNPELADKISAGGS [r8_85_TrROS] | 0.106 ± 0.43 kcal/mol | -0.00324 ± 0.54 kcal/mol | -0.0764 ± 0.42 kcal/mol
21 | SAGGSASLNLTPDDNVTLTVSTPDGSGATVEVKVEKLPDGTIKLTETVTWPDGTVSTRTSTISTKASAGGSA [r15_476_JUSTAS] | 1.08 ± 0.045 kcal/mol | 0.598 ± 0.028 kcal/mol | 0.893 ± 0.041 kcal/mol
